B1: CPEB3 Ribozyme (parent)
chain: UAACAGGGGGCCACAGCAGAAGCGUUCACGUCGCAGCCCCUGUCAGAUUCUGGUGAAUCUGCGAAUUCUGCUGUAUAUCUC

Variants of: B1
Assay: self-cleavage, relative activity (ratio to wild type); higher = more cleavage; in vitro, sequencing
Method in brief: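 Relative activity compares each variant's cleaved/total read fraction with that of the unmutated ribozyme. To get these fractions, barcoded CPEB3 ribozyme libraries from rounds of error-prone PCR were transcribed with T7 RNA polymerase for 5 hours at 37°C and then given 15 min of DNase I treatment before EDTA was added. The RNAs were reverse transcribed with template switching and sequenced on Illumina, and DNA sequencing linked barcodes to variants. A minimum of 5 reads applied, and three batches were averaged.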

**Q.** With UAACAGGGGGCCACAGCAGAAGCGCUCACGUCGCAGCCCCAGUCAGAUUCUGGUGAAUCUGCGAAUUCUGCUGUAUAUCUC [U25C U41A] as the variant, how does the self-cleavage read?
**A.** 0.3

**Q.** Which self-cleavage does the source give for UAACAGGGGGCCACAGCAGAAGCGCUCACGUCGCAGCCCCUGUCAGAUUCUGGAGAAUCUGCGAAUUCUGCUGUAUAUCUC [U25C U54A] here?
**A.** 0.28

**Q.** For UAACAGGGGGCCACAGCAGAAGCGCUCACGUCGCAGCCCCUGUCAGAUUCUGGCGAAUCUGCGAAUUCUGCUGUAUAUCUC [U25C U54C], which self-cleavage is on record?
**A.** 0.27

**Q.** For UAACAGGGGGCCACAGCAGAAGCGCUCACGUCGCAGCCCCUGUCAGAUUCUGGGGAAUCUGCGAAUUCUGCUGUAUAUCUC [U25C U54G], which self-cleavage is on record?
**A.** 0.31

**Q.** With UAACAGGGGGCCACAGCAGAAGCGCUCACGUCGCAGCCCCUGUCAGAUUCUGGUGAAUCUGCGAAUUCUGCUGCAUAUCUC [U25C U74C] as the variant, how does the self-cleavage read?
**A.** 0.35

**Q.** Which self-cleavage does the source give for UAACAGGGGGCCACAGCAGAAGCGCUCACGUCGCAGCCCCUGUCAGAUUCUGGUGAAUCUGCGAAUUCUGCUGAAUAUCUC [U25C U74A] here?
**A.** 0.42

**Q.** Which self-cleavage does the source give for UAACAGGGGGCCACAGCAGAAGCGGUCUCGUCGCAGCCCCUGUCAGAUUCUGGUGAAUCUGCGAAUUCUGCUGUAUAUCUC [U25G A28U] here?
**A.** 0.31

**Q.** Which self-cleavage does the source give for UAACAGGGGGCCACAGCAGAAGCGGUCGCGUCGCAGCCCCUGUCAGAUUCUGGUGAAUCUGCGAAUUCUGCUGUAUAUCUC [U25G A28G] here?
**A.** 0.37

**Q.** Which self-cleavage does the source give for UAACAGGGGGCCACAGCAGAAGCGCUCACGUCGCAGCCCCUGCCAGAUUCUGGUGAAUCUGCGAAUUCUGCUGUAUAUCUC [U25C U43C] here?
**A.** 0.3

**Q.** For UAACAGGGGGCCACAGCAGAAGCGCUCACGUCGCAGCCCCUGGCAGAUUCUGGUGAAUCUGCGAAUUCUGCUGUAUAUCUC [U25C U43G], which self-cleavage is on record?
**A.** 0.35

**Q.** With UAACAGGGGGCCACAGCAGAAGCGCUCACGUCGCAGCCCCUGACAGAUUCUGGUGAAUCUGCGAAUUCUGCUGUAUAUCUC [U25C U43A] as the variant, how does the self-cleavage read?
**A.** 0.34

**Q.** With UAACAGGGGGCCACAGCAGAAGCGGUCACGUCGCAGCCCCUGUCAGUUUCUGGUGAAUCUGCGAAUUCUGCUGUAUAUCUC [U25G A47U] as the variant, how does the self-cleavage read?
**A.** 0.32

**Q.** For UAACAGGGGGCCACAGCAGAAGCGCUCACGUCGCAGCCCCUGUCAGAUUCUGGUGAAUCUGCAAAUUCUGCUGUAUAUCUC [U25C G63A], which self-cleavage is on record?
**A.** 0.37

**Q.** Which self-cleavage does the source give for UAACAGGGGGCCACAGCAGAAGCGCUCACGUCGCAGCCCCUGUCAGAUUCUGGUGAAUCUGCUAAUUCUGCUGUAUAUCUC [U25C G63U] here?
**A.** 0.3

**Q.** With UAACAGGGGGCCACAGCAGAAGCGCUCACGUCGCAGCCCCUGUCAGAUUCUGGUGAAUCUGCCAAUUCUGCUGUAUAUCUC [U25C G63C] as the variant, how does the self-cleavage read?
**A.** 0.26

**Q.** With UAACAGGGGGCCACAGCAGAAGCGCUCACGUCGCAGCCCCUGUCAGAUUCUGGUGAAUCUGCGAAUUCUGCUGUAUAACUC [U25C U78A] as the variant, how does the self-cleavage read?
**A.** 0.25

**Q.** Which self-cleavage does the source give for UAACAGGGGGCCACAGCAGAAGCGCUCACGUCGCAGCCCCUGUCAGAUUCUGGUGAAUCUGCGAAUUCUGCUGUAUACCUC [U25C U78C] here?
**A.** 0.24

**Q.** For UAACAGGGGGCCACAGCAGAAGCGCUCACGUCGCAGCCCCUGUCAGAUUCUGGUGAAUCUGCGAAUUCUGCUGUAUAGCUC [U25C U78G], which self-cleavage is on record?
**A.** 0.22

**Q.** With UAACAGGGGGCCACAGCAGAAGCGCUCACGUCGCAGCCCCUGUCAGAUUCUGGUGAAUCUGCGAAUUCUACUGUAUAUCUC [U25C G70A] as the variant, how does the self-cleavage read?
**A.** 0.3

**Q.** Which self-cleavage does the source give for UAACAGGGGGCCACAGCAGAAGCGCUCACGUCGCAGCCCCUGUCAGAUUCUGGUGAAUCUGCGAAUUCUCCUGUAUAUCUC [U25C G70C] here?
**A.** 0.11

**Q.** For UAACAGGGGGCCACAGCAGAAGCGCUCACGUCGCAGCCCCUGUCAGAAUCUGGUGAAUCUGCGAAUUCUGCUGUAUAUCUC [U25C U48A], which self-cleavage is on record?
**A.** 0.31

**Q.** With UAACAGGGGGCCACAGCAGAAGCGCUCACGUCGCAGCCCCUGUCAGAGUCUGGUGAAUCUGCGAAUUCUGCUGUAUAUCUC [U25C U48G] as the variant, how does the self-cleavage read?
**A.** 0.39

**Q.** For UAACAGGGGGCCACAGCAGAAGCGCUCACGUCGCAGCCCCUGUCAGACUCUGGUGAAUCUGCGAAUUCUGCUGUAUAUCUC [U25C U48C], which self-cleavage is on record?
**A.** 0.26

**Q.** Which self-cleavage does the source give for UAACAGGGGGCCACAGCAGAAGCGCUCACGUCGCAGCCCCUGUCAGAUACUGGUGAAUCUGCGAAUUCUGCUGUAUAUCUC [U25C U49A] here?
**A.** 0.3

**Q.** Which self-cleavage does the source give for UAACAGGGGGCCACAGCAGAAGCGCUCACGUCGCAGCCCCUGUCAGAUCCUGGUGAAUCUGCGAAUUCUGCUGUAUAUCUC [U25C U49C] here?
**A.** 0.21

**Q.** Which self-cleavage does the source give for UAACAGGGGGCCACAGCAGAAGCGCUCACGUCGCAGCCCCUGUCAGAUUCUGGUGAAUCUGCGAAUCCUGCUGUAUAUCUC [U25C U67C] here?
**A.** 0.2

**Q.** For UAACAGGGGGCCACAGCAGAAGCGCUCACGUCGCAGCCCCUGUCAGAUUCUGGUGAAUCUGCGAAUGCUGCUGUAUAUCUC [U25C U67G], which self-cleavage is on record?
**A.** 0.11

**Q.** Which self-cleavage does the source give for UAACAGGGGGCCACAGCAGAAGCGCUCACGUCGCAGCCCCUGUCAGAUUCUGGUGAAUCUGCGAAUACUGCUGUAUAUCUC [U25C U67A] here?
**A.** 0.25

**Q.** With UAACAGGGGGCCACAGCAGAAGCGCUCACGUCGCAGCCCCUGUCAGAUUCUGGUGAAUCUGCGAAUUCUGCGGUAUAUCUC [U25C U72G] as the variant, how does the self-cleavage read?
**A.** 0.26

**Q.** For UAACAGGGGGCCACAGCAGAAGCGCUCACGUCGCAGCCCCUGUCAGAUUCUGGUGAAUCUGCGAAUUCUGCAGUAUAUCUC [U25C U72A], which self-cleavage is on record?
**A.** 0.22

**Q.** With UAACAGGGGGCCACAGCAGAAGCGCUCACGUCGCAGCCCCUGUCAGAUUCUGGUGAAUCUGCGAAUUCUGCCGUAUAUCUC [U25C U72C] as the variant, how does the self-cleavage read?
**A.** 0.28

**Q.** With UAACAGGGGGCCACAGCAGAAGCGCUCACGUCGCAGCCCCUGUCAGAUUCUGGUGAAUCUCCGAAUUCUGCUGUAUAUCUC [U25C G61C] as the variant, how does the self-cleavage read?
**A.** 0.15

**Q.** With UAACAGGGGGCCACAGCAGAAGCGCUCACGUCGCAGCCCCUGUCAGAUUCUGGUGAAUCUACGAAUUCUGCUGUAUAUCUC [U25C G61A] as the variant, how does the self-cleavage read?
**A.** 0.15

**Q.** Which self-cleavage does the source give for UAACAGGGGGCCACAGCAGAAGCGCUCACGUCGCAGCCCCUGUCAGAUUCUGGUGAAUCUUCGAAUUCUGCUGUAUAUCUC [U25C G61U] here?
**A.** 0.17
